The values that follow come from article PMC3144404.

This experiment addresses actin, endogenous (human (endogenous in myoblasts and myotubes from human muscle biopsies)) (UniProt P60709). Put plainly: co-IP.

In turn, “STIM1L (long splice variant of stromal interaction molecule 1), endogenous (from UniProt Q13586-2 23-540) (natural protein)” registered a percent of input immunoprecipitated of 87%.
